# From publication PMC5633104 (The Journal of Biological Chemistry, 2017)
# T1: Autophosphorylated GST-tagged Jak3-WT (P-Jak3-WT) (UniProt P52333 1-1124, autophosphorylated on tyrosine (sites not given))
# T1 construct: also called phosphorylated Jak3; source: E. coli BL-21, purified, autophosphorylated
# T1 sequence (looked up): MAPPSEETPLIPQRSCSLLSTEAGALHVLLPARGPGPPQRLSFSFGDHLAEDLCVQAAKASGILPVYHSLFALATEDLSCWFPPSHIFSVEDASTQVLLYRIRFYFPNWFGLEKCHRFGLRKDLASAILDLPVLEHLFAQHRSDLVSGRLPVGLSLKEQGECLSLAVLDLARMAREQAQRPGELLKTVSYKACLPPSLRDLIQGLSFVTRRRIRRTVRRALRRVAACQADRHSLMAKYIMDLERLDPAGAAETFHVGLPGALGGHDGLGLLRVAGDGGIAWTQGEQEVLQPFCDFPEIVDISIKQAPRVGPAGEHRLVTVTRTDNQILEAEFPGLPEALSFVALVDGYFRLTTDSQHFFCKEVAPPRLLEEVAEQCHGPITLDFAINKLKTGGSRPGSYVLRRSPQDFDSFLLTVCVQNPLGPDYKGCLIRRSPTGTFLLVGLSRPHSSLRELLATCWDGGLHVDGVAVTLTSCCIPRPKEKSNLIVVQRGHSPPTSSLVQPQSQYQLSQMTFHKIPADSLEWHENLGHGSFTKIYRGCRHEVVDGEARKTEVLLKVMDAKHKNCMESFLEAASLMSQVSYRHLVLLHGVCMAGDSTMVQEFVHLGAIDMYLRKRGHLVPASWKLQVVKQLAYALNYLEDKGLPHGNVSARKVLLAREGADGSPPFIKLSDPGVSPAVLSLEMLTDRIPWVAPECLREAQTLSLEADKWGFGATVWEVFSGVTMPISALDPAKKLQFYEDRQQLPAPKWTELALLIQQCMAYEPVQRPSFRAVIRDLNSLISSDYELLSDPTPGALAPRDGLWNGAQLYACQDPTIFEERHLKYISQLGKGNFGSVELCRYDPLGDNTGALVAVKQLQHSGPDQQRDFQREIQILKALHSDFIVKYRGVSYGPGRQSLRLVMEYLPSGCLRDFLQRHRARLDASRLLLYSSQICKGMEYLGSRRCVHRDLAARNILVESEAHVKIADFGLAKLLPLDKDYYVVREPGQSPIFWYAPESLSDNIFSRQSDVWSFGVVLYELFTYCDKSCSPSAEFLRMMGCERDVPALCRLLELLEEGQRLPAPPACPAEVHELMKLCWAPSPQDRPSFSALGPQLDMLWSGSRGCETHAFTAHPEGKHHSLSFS
# B1: His-tagged β-catenin–WT, tyrosine-phosphorylated form (P–β-catenin) (natural protein, UniProt P35222 1-781, looked up)
# chain: MATQADLMELDMAMEPDRKAAVSHWQQQSYLDSGIHSGATTTAPSLSGKGNPEEEDVDTSQVLYEWEQGFSQSFTQEQVADIDGQYAMTRAQRVRAAMFPETLDEGMQIPSTQFDAAHPTNVQRLAEPSQMLKHAVVNLINYQDDAELATRAIPELTKLLNDEDQVVVNKAAVMVHQLSKKEASRHAIMRSPQMVSAIVRTMQNTNDVETARCTAGTLHNLSHHREGLLAIFKSGGIPALVKMLGSPVDSVLFYAITTLHNLLLHQEGAKMAVRLAGGLQKMVALLNKTNVKFLAITTDCLQILAYGNQESKLIILASGGPQALVNIMRTYTYEKLLWTTSRVLKVLSVCSSNKPAIVEAGGMQALGLHLTDPSQRLVQNCLWTLRNLSDAATKQEGMEGLLGTLVQLLGSDDINVVTCAAGILSNLTCNNYKNKMMVCQVGGIEALVRTVLRAGDREDITEPAICALRHLTSRHQEAEMAQNAVRLHYGLPVVVKLLHPPSHWPLIKATVGLIRNLALCPANHAPLREQGAIPRLVQLLVRAHQDTQRRTSMGGTQQQFVEGVRMEEIVEGCTGALHILARDVHNRIVIRGLNTIPLFVQLLYSPIENIQRVAAGVLCELAQDKEAAEAIEAEGATAPLTELLHSRNEGVATYAAAVLFRMSEDKPQDYKKRLSVELTSSLFRTEPMAWNETADLGLDIGAQGEPLGYRQDDPSYRSFHSGGYGQDALGMDPMMEHEMGGHHPGADYPVDGLPDLGHAQDLMDGLPPGDSNQLAWFDTDL
# modifications: tyrosine-phosphorylated (made in TKX1; sites not stated)
# notes: β-catenin, wild type, full-length cDNA; also called phosphorylated β-catenin; source: E. coli TKX1, purified
# What was measured:
# Hif1α = Hif1α (UniProt Q16665); assay: co-IP and immunoblot; conditions: reference: wild type, EGF + IL-2; sites Y30,Y64,Y86
# [1] = molecular target: His-tagged β-catenin–WT, tyrosine-phosphorylated form (P–β-catenin) (UniProt P35222); assay: ELISA; called a pairwise binding assay, done as in refs. 19, 20; by the legends a β-catenin-coated 96-well microtiter plate with Jak3 added, optical density read; Kd by Hyperbol-fit (MicroCal Origin)
# [2] = molecular target: T1, Autophosphorylated GST-tagged Jak3-WT …; assay: as above; conditions: both partners purified
molecule,measurement,setting,value
"β-catenin (from UniProt P35222) Y30F,Y64F,Y86F, EGF + IL-2",binding against the reference,Hif1α,stronger
Jak3 with the kinase domain deleted (domain or fragment),fold decrease of the interaction against Jak3-WT,[1],> 4 fold
B1,Kd,[2],280 nM
